Data published in publication doi:10.1101/2022.02.27.481963.

Target: Fused MjGMPS (MjATPPase subunit fused to the C-terminus of MjGATase, no intervening linker) (Methanocaldococcus jannaschii)
Experiment: SEC

“Fused MjGMPS (MjATPPase subunit fused to the C-terminus of MjGATase, no intervening linker) (enzyme)” showed a stoichiometry N of 2.
